Assay [1] addresses T1, recombinant human PlGF-2 (produced in Pichia) (human, UniProt P49763-3 19-170, limits assumed).
T1 construct: also called huPlGF-2; rhuPlGF-2
T1 sequence (looked up): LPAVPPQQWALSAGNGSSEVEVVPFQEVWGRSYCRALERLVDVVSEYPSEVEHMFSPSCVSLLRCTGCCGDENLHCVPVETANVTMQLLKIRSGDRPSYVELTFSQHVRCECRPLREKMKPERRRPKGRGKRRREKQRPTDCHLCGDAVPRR
Put plainly: Biacore, rhuPlGF-2 (Pichia) immobilized, antibody injected.

For assay [2], the target named is T2, human PlGF-1 (human, UniProt P49763-2 19-149, limits assumed).
T2 construct: also called huPlGF-1; huPlGF
T2 sequence (looked up): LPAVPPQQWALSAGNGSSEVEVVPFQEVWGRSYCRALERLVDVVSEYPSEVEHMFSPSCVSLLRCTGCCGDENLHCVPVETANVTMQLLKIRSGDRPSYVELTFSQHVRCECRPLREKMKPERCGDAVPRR
Briefly: ELISA, plate coated with 1 µg/ml huPlGF-1, detection with murine anti-HA and goat anti-murine IgG-HRP, OPD. As for the experimental part:
ELISA plates were coated ON with 1 μg/ml huPlGF-1 in PBS, 200 μL/well, 4° C. After blocking with 1% BSA, 1 hr, RT, a dilution series of scFv16D3/humanized scFv16D3 was added, 200 μL/well, the antibody fragment was allowed to bind for 1 hr, RT. Bound scFv16D3 was detected with murine anti-HA (180 μL/well, 1 hr RT) followed by incubation with goat-anti-murine IgG-HRP (Sigma), 170 μL/well, 1 hr, RT. The assay was developed with OPD.

The target of assay [3] is T2, human PlGF-1. Briefly: ELISA, plate coated with huPlGF-1, detection with anti-huIgG-HRP (Fab specific), OPD. The procedure: ELISA plates were coated ON with […] huPlGF-1 in PBS, 100 μL/well, 4° C. After blocking with 1% BSA, 1 hr, RT, a dilution series of humanized Fab16D3 was added, 100 μL/well, the antibody fragment was allowed to bind for 1 hr, RT. Bound humanized Fab16D3 was detected with anti-huIgG-HRP(Fab specific) (100 μL/well, 1 hr RT). The assay was developed with OPD.
In general terms: ELISA stands for enzyme-linked immunosorbent assay.

Numbering of substitutions follows the chain as printed.

B1: humanized scFv of 16D3 (scFv)
scFv: QVQLQQSGAELVKPGASVKISCKASGYTFTDYYINWVKLAPGQGLEWIGWIYPGSGNTKYNEKFKGKATLTIDTSSSTAYMQLSSLTSEDTAVYFCVRDSPFFDYWGQGTLLTVSSGGGGSGGGGSGGGGSDIVLTQSPDSLAVSLGERVTMNCKSSQSLLNSGMRKSFLAWYQQKPGQSPKLLIYWASTRESGVPDRFTGSGSGTDFTLTISSVQAEDVAVYYCKQSYHLFTFGSGTKLEIKGSYPYDVPDYAGSHHHHHH
notes: also called humanized scFv16D3; scFvhp16D3mut
On to B1, for which the Kd (commonly the free concentration of one partner at which half of the binding sites on the other are occupied at equilibrium, for simple one-to-one binding) in assay [1] worked out at 0.195 nM. Also, the EC50 (read off the curve) (in general, the concentration giving half of the maximal effect) with human PlGF-1 [2] was ~0.1 µg/mL.

B2: scFv of murine antibody 16D3 (scFv)
scFv: B1 scFv with V2I, A9P, A40K, L111T, T136S, D140S, L146A, R149K, N153R, V220L
notes: also called scFv16D3; scFv hp16D3
Regarding B2, the “EC50 (read off the curve)” value with human PlGF-1 [2] was ~0.1 µg/mL.

B3: murine monoclonal anti-human PlGF antibody 16D3 (antibody, V domains shown)
VH: QIQLQQSGPELVKPGASVKISCKASGYTFTDYYINWVKLKPGQGLEWIGWIYPGSGNTKYNEKFKGKATLTIDTSSSTAYMQLSSLTSEDTAVYFCVRDSPFFDYWGQGTTLTVSS
VL: DIVLSQSPSSLAVSAGEKVTMRCKSSQSLLNSGMRKSFLAWYQQKPGQSPKLLIYWASTRESGVPDRFTGSGSGTDFTLTISSVQAEDLAVYYCKQSYHLFTFGSGTKLEIK
notes: Whole mouse antibody from hybridoma LMBP 6399CB; also called anti-hPlGF; hp16D3mousecomplAB
As to B3, the Kd in assay [1] was 0.29 nM.

B4: humanized antibody 16D3 IgG4 kappa (antibody, V domains shown)
VH: B3 VH with I2V, P9A, K40A, T111L
VL: B3 VL with S5T, S9D, A15L, K18R, R22N, L89V
notes: Expressed transiently in HEK 293 cells; also called hu16D3; Hu16D3 IgG4κ
Turning to B4, the Kd in assay [1] stood at 0.161 nM.

B5: humanized Fab 16D3 (Fab, V domains shown)
VH: B3 VH with I2V, P9A, K40A, T111L
VL: B3 VL with S5T, S9D, A15L, K18R, R22N, L89V
notes: also called hp16D3mutcomplFab; hp16D3mutcmplFab
For the molecule B5, the Kd in assay [1] was found to be 0.131 nM. The “EC50 (read off the curve)” value with human PlGF-1 [3] was ~90 µg/mL.

These data come from US20110123525A1 (THROMBOGENICS N V, published 2011).
